According to paper PMC7367873, “Dissecting the sequence determinants for dephosphorylation by the catalytic subunits of phosphatases PP1 and PP2A” (Nature Communications, 2020):
Values belong to the molecule of their own block, whether it stands above or below them.

Assays:
GFP-14-3-3β = GFP-14-3-3β co-IP with LC-MS/MS, untreated GFP-14-3-3β versus GFP control (14-3-3 interactome); type: binding, human; details: GFP-14-3-3β co-IP LC-MS/MS; untreated vs GFP; student's t-test; label-free quantification, 3 replicates each
[1] = test system: GFP-14-3-3β and its binding proteins; test: GFP-14-3-3β co-IP with LC-MS/MS label-free quantification, untreated versus PP1c-treated; design: species or system human; details: GFP-14-3-3β co-IP LC-MS/MS; PP1 vs untreated; student's t-test; label-free quantification, 3 replicates each

- Difference (log2), PP1 vs untreated [1]: -0.251 log2
B1: CANX (protein, UniProt P27824 21-592, looked up)
Calnexin: HDGHDDDVIDIEDDLDDVIEEVEDSKPDTTAPPSSPKVTYKAPVPTGEVYFADSFDRGTLSGWILSKAKKDDTDDEIAKYDGKWEVEEMKESKLPGDKGLVLMSRAKHHAISAKLNKPFLFDTKPLIVQYEVNFQNGIECGGAYVKLLSKTPELNLDQFHDKTPYTIMFGPDKCGEDYKLHFIFRHKNPKTGIYEEKHAKRPDADLKTYFTDKKTHLYTLILNPDNSFEILVDQSVVNSGNLLNDMTPPVNPSREIEDPEDRKPEDWDERPKIPDPEAVKPDDWDEDAPAKIPDEEATKPEGWLDDEPEYVPDPDAEKPEDWDEDMDGEWEAPQIANPRCESAPGCGVWQRPVIDNPNYKGKWKPPMIDNPSYQGIWKPRKIPNPDFFEDLEPFRMTPFSAIGLELWSMTSDIFFDNFIICADRRIVDDWANDGWGLKKAADGAAEPGVVGQMIEAAEERPWLWVVYILTVALPVFLVILFCCSGKKQTSGMEYKKTDAPQPDVKEEEEEKEEEKDKGDEEEEGEEKLEEKQKSDAEEDGGTVSQEEEDRKPKAEEDEILNRSPRNRKPRRE
- Difference (log2), untreated vs GFP (GFP-14-3-3β): 0.347 log2

- Difference (log2), PP1 vs untreated [1]: -0.251 log2
B2: XPOT (protein, UniProt O43592 1-962, looked up)
Exportin-T: MDEQALLGLNPNADSDFRQRALAYFEQLKISPDAWQVCAEALAQRTYSDDHVKFFCFQVLEHQVKYKYSELTTVQQQLIRETLISWLQAQMLNPQPEKTFIRNKAAQVFALLFVTEYLTKWPKFFFDILSVVDLNPRGVDLYLRILMAIDSELVDRDVVHTSEEARRNTLIKDTMREQCIPNLVESWYQILQNYQFTNSEVTCQCLEVVGAYVSWIDLSLIANDRFINMLLGHMSIEVLREEACDCLFEVVNKGMDPVDKMKLVESLCQVLQSAGFFSIDQEEDVDFLARFSKLVNGMGQSLIVSWSKLIKNGDIKNAQEALQAIETKVALMLQLLIHEDDDISSNIIGFCYDYLHILKQLTVLSDQQKANVEAIMLAVMKKLTYDEEYNFENEGEDEAMFVEYRKQLKLLLDRLAQVSPELLLASVRRVFSSTLQNWQTTRFMEVEVAIRLLYMLAEALPVSHGAHFSGDVSKASALQDMMRTLVTSGVSSYQHTSVTLEFFETVVRYEKFFTVEPQHIPCVLMAFLDHRGLRHSSAKVRSRTAYLFSRFVKSLNKQMNPFIEDILNRIQDLLELSPPENGHQSLLSSDDQLFIYETAGVLIVNSEYPAERKQALMRNLLTPLMEKFKILLEKLMLAQDEERQASLADCLNHAVGFASRTSKAFSNKQTVKQCGCSEVYLDCLQTFLPALSCPLQKDILRSGVRTFLHRMIICLEEEVLPFIPSASEHMLKDCEAKDLQEFIPLINQITAKFKIQVSPFLQQMFMPLLHAIFEVLLRPAEENDQSAALEKQMLRRSYFAFLQTVTGSGMSEVIANQGAENVERVLVTVIQGAVEYPDPIAQKTCFIILSKLVELWGGKDGPVGFADFVYKHIVPACFLAPLKQTFDLADAQTVLALSECAVTLKTIHLKRGPECVQYLQQEYLPSLQVAPEIIQEFCQALQQPDAKVFKNYLKVFFQRAKP
- Difference (log2), untreated vs GFP (GFP-14-3-3β): 1.37 log2
